Measurements taken from patent publication US10913773B2, “Bicyclic peptidyl inhibitor of tumor necrosis factor-alpha” (Ohio State Innovation Foundation, priority 2016, dated 2021).
Where two headings read alike, the source gives them in different places. Starred links: 1 amine or outer side, 2 acyl side, 3 side chain; linkers in the order of their positions; H or OH if unused. Positions of bridges follow the written chain, without caps; N, C: chain ends. Non-standard residues stand in square brackets, D forms with d. Residues, ends and D or L forms follow the SMILES beside them. Groups on a side chain read outwards from the residue. Primed or numbered codes have the meaning given here. No end group written: not given here. *: point of attachment. Lys(5-FITC)NH2 = NC(=O)[C@H](CCCCNC(=S)Nc1ccc2c(c1)C(=O)OC21c2ccc(O)cc2Oc2cc(O)ccc21)N*; FITC(3) = fluorescein isothiocyanate (N6-fluorescein-thiocarbamoyl on Lys); FITC = O=C1OC2(c3ccc(O)cc3Oc3cc(O)ccc32)c2ccc(NC(=S)*)cc21; Trimesoyl = O=C(c1cc(C(=O)[*:2])cc(C(=O)[*:3])c1)[*:1]; trimesoyl″ = benzene-1,3,5-tricarbonyl scaffold; FITC′ = fluorescein isothiocyanate, on Lys NZ; Phg = N[C@H](C(=O)O)c1ccccc1; Nle = CCCC[C@H](N)C(=O)O; Dap = NC[C@H](N)C(=O)O; AEEA = NCCOCCOCC(=O)O

Columns and labels:
TNFα = molecular target: T1, TNFα (Homo sapiens, UniProt P01375); assay: Fluorescence anisotropy (FA) binding of fluorescently labeled bicyclic peptides to TNFα; details: Table 5; residue 11 variants with Lys(FITC)
T1 construct: ybbR tag (13 aa) (N); made in house; host or cells: Escherichia coli
Procedure: FITC-labeled bicyclic peptide (50 or 100 nM) were incubated with varying concentrations of TNFα (0-5 μM) in 30 mM HEPES, pH 7.4, 150 mM NaCl, and 2 mM magnesium acetate for 2 h. The FA values were measured on a Molecular Devices Spectramax M5 spectrofluorimeter, with excitation and emission wavelengths at 485 and 525 nm, respectively. Equilibrium dissociation constants (KD) were determined by plotting the FA values as a function of TNFα concentration and fitting the data to the following equation
[formula] where Y is the measured anisotropy at a given TNFα concentration x; L is the bicyclic peptide concentration; Qb/Qf is the correction fact for dye-protein interaction; Amax is the maximum anisotropy when all the peptides are bound to TNFα, while Amin is the minimum anisotropy. Competition experiments were performed by incubating 100 nM Asn-Asn-Asn-Lys(FITC)-labeled anticachexin C1 (Table 1), 2 μM of TNFα, and varying concentrations of unlabeled competitor peptide (0-20 μM) in the above buffer for 2 h. The FA values were plotted against the competitor peptide concentration to determine the IC50 values.
To identify residues significant for TNFα binding, each residue of anticachexin C1 (other than D-alanine at position-3, L-lysine at position-4, and L-2,3-diaminopropionic acid (Dap) at position-10) was individually replaced with an alanine (or D-alanine). To facilitate binding analysis by fluorescence anisotropy (FA), a tetrapeptide NNNK (SEQ ID NO: 1) was added to the C-terminus of each bicyclic peptide and the lysine side chain was labeled with fluorescein isothiocyanate (FITC) during solid-phase synthesis (Scheme 1). The three asparagine residues were added to improve the aqueous solubility of the bicyclic peptides. The bicyclic peptide was prepared by first synthesizing the full-length linear sequence on Rink amide resin using standard Fmoc/HBTU chemistry. The side chains of the two internal cyclization residues, L-lysine and Dap, were protected with monomethoxytrityl (Mmt) groups, whereas the C-terminal lysine was protected with an allyloxycarbonyl (Alloc) group. After removal of the N-terminal Fmoc group, a trimesic acid was coupled to the N-terminal amine using HBTU as the coupling agent. Next, the Mmt groups were selectively removed from the Lys and Dap side chains by 2% TFA and the peptide was cyclized by treatment with (benzotriazol-1-yloxy)tripyrrolidinophosphonium hexafluorophosphate (PyBOP). The Alloc group on the C-terminal lysine side chain was removed by treatment with Pd(PPh3)4 and the bicyclic peptide was selectively labeled at the C-terminal lysine by treating the resin with FITC. […] On the other hand, phenylglycine (Phg)-1 and glycine-7 play more minor roles in binding.

[1] = molecular target: T2, Recombinant TNFα containing an N-terminal 13-aa ybbR tag (human, UniProt P01375 77-233, biotin at the ybbR tag in the ELISA assays); assay: FA, FITC-peptide + TNFα titration
T2 construct: Expressed in E. coli; Same construct used unlabelled (FA) and biotinylated on NeutrAvidin (ELISA); also called tumor necrosis factor-alpha; human TNFα; not shown: N-terminal 13-aa ybbR tag
Procedure: (§1) The FA values were measured on a Molecular Devices Spectramax M5 spectrofluorimeter, with excitation and emission wavelengths at 485 and 525 nm, respectively. Equilibrium dissociation constants (KD) were determined by plotting the FA values as a function of TNFα concentration and fitting the data to the following equation $$Y = \frac{\left(Amin + \left(Amax \times \frac{Q_b}{Q_f} - Amin\right)\left(\frac{(L+x+K_d) - \sqrt{((L+x+K_d)^2 - 4Lx)}}{2L}\right)\right)}{\left(1 + \left(\frac{Q_b}{Q_f} - 1\right)\left(\frac{(L+x+K_d) - \sqrt{((L+x+K_d)^2 - 4Lx)}}{2L}\right)\right)}$$
(§2) where Y is the measured anisotropy at a given TNFα concentration x; L is the bicyclic peptide concentration; Qb/Qf is the correction fact for dye-protein interaction; Amax is the maximum anisotropy when all the peptides are bound to TNFα, while $Amin$ is the minimum anisotropy. […] The FA values were plotted against the competitor peptide concentration to determine the IC$50$ values.

[2] = molecular target: T2, Recombinant TNFα containing an …; assay: FA
Procedure: as §1, §2

[3] = molecular target: T2, Recombinant TNFα containing an …; assay: FA, FITC-peptide + TNFα titration; remark: listed apart in the source
Procedure: as §1, §2

[4] = molecular target: T2, Recombinant TNFα containing an …; assay: FA; against C1
Procedure: as §1, §2

[5] = molecular target: T2, Recombinant TNFα containing an …; assay: FA, FITC-peptide + TNFα titration; remark: listed apart in the source
Procedure: as §1, §2

T2 sequence (P01375 77-233): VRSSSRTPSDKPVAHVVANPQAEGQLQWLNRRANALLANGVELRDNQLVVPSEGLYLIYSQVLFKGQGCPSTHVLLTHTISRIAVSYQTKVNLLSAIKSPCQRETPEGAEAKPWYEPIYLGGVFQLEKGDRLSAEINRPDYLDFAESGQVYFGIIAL

| Kd [1] [nM] | Kd [3] [nM] | Fold of Affinity Reduction [4] [fold] | Molecule | further results |
| --- | --- | --- | --- | --- |
| – | – | – | CCCC[C@@H]1NC(=O)c2cc3cc(c2)C(=O)NC[C@@H](C(=O)N[C@@H](CC(=O)NCCOCCOCC(=O)N[C@@H](CCCCNC(=S)Nc2ccc4c(c2)C(=O)OC42c4ccc(O)cc4Oc4cc(O)ccc42)C(N)=O)C(=O)NCC)NC(=O)[C@H](Cc2c[nH]cn2)NC(=O)[C@@H](CCCCN)NC(=O)CNC(=O)[C@@H](Cc2c[nH]cn2)NC(=O)[C@H](Cc2c[nH]c4ccccc24)NC(=O)[C@H](CCCCNC3=O)NC(=O)[C@@H](CO)NC(=O)[C@H](Cc2ccc(O)cc2)NC1=O [Compound C1-60] ([Nle]Y[dS]KW[dH]G[dK]H[Dap]D([AEEA-Lys(5-FITC)NH2])-NHEt; linker N-4-10 via Trimesoyl) | Kd (TNFα): 380 ± 140 nM |
| 3500 | – | – | [Nle]Y[dS]KW[dH]G[dK]H[Dap]DK(FITC)-NH2 (linker (positions not given here) via trimesoyl″; not fully specified (bridges), C1-35 core with R11 as printed) [C1-51] | – |
| 790 | – | – | [Nle]Y[dS]KW[dH]G[dK]H[Dap]NK(FITC)-NH2 (linker N-4-10 via trimesoyl″, C1-35 core with R11 as printed) [C1-52] | fold reduction in affinity against C1-35 [2]: 3 fold |
| – | 5900 | 7 | [Phg]Y[dA]KY[dF]G[dA]H[Dap]NNNK(FITC(3))-NH2 (linker N-4-10 via trimesoyl″) [Anticachexin C1 D-Lys8 → D-Ala, NNNK(FITC)-tagged] | – |
| – | 3400 | 4 | [Phg]Y[dA]KY[dA]G[dK]H[Dap]NNNK(FITC(3))-NH2 (linker N-4-10 via trimesoyl″) [Anticachexin C1 D-Phe6 → D-Ala, NNNK(FITC)-tagged] | – |
| – | 13000 | 14 | [Phg]A[dA]KY[dF]G[dK]H[Dap]NNNK(FITC′)-NH2 (bridge (positions not given here) via trimesoyl″; not fully specified (N-terminus, bridges); also: feature: K4 labeled with FITC) [Anticachexin C1 Tyr2 → Ala, NNNK(FITC)-tagged] | – |
| – | 11000 | 12 | [Phg]Y[dA]KA[dF]G[dK]H[Dap]NNNK(FITC′)-NH2 (bridge (positions not given here) via trimesoyl″; not fully specified (N-terminus, bridges); also: feature: K4 labeled with FITC) [Anticachexin C1 Tyr5 → Ala, NNNK(FITC)-tagged] | – |
| – | 1200 | 1.5 | [Phg]Y[dA]KY[dF]A[dK]H[Dap]NNNK(FITC(3))-NH2 (linker N-4-10 via trimesoyl″) [Anticachexin C1 Gly7 → Ala, NNNK(FITC)-tagged] | – |
| – | 4400 | 5 | [Phg]Y[dA]KY[dF]G[dK]A[Dap]NNNK(FITC(3))-NH2 (linker N-4-10 via trimesoyl″) [Anticachexin C1 His9 → Ala, NNNK(FITC)-tagged] | – |
| – | 1000 | 1.2 | AY[dA]KY[dF]G[dK]H[Dap]NNNK(FITC(3))-NH2 (linker N-4-10 via trimesoyl″) [Anticachexin C1 Phg1 → Ala, NNNK(FITC)-tagged] | – |
| 260 | 260 | – | [Nle]Y[dS]KW[dH]G[dK]H[Dap]K(FITC)-NH2 (linker N-4-10 via trimesoyl″) [C1-35] | Kd [5]: 260 nM; fold increase in affinity against Tyr at position-5 [2]: 3 fold |
| 5100 | – | – | [Nle]Y[dS]KW[dH]G[dK]H[Dap][AEEA]K(FITC)-NH2 (linker N-4-10 via trimesoyl″, C1-35 core with R11 as printed) [C1-54] | – |
| 1000 | – | – | [Nle]Y[dS]KW[dH]G[dK]H[Dap]F[AEEA]K(FITC)-NH2 (linker N-4-10 via trimesoyl″, C1-35 core with R11 as printed) [C1-55] | – |
| 510 | – | – | [Nle]Y[dS]KW[dH]G[dK]H[Dap]I[AEEA]K(FITC)-NH2 (linker N-4-10 via trimesoyl″, C1-35 core with R11 as printed) [C1-57] | – |
